Results: patent publication US20240182561A1 (Regeneron, published 2024)

Experiments:
[1] = target: T1, human CACNG1 expressed on cells (human, UniProt Q06432 1-222); assay: cell-based or functional assay
[2] = target: T1, human CACNG1 expressed on cells; assay: cell-based or functional assay; remark: listed apart in the source
[3] = target: T2, mouse CACNG1 expressed on cells (mouse, UniProt O70578 1-223); assay: biosensor conjugate imaging (AF647), 6.7 nM, C2C12 mouse myotubes
T2 construct: whole, on cells; Transfected in HEK293/mCACNG1; endogenous in C2C12 myotubes and wildtype mouse myofibers; Each row names the cell type under assay; also called mCACNG1; HEK293/mCACNG1
T2 sequence (looked up): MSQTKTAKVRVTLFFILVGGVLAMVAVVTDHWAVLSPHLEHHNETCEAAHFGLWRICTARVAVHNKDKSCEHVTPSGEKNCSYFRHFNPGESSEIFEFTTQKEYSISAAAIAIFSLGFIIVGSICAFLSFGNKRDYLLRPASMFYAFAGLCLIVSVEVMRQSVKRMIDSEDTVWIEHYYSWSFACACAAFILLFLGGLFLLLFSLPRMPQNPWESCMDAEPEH
Protocol: The growth media was changed to MyoTonic Differentiation Media (Cook Myosite Cat #MD-5555) and replaced every 2 days. C2C12 mouse myoblasts were maintained in DMEM with 10% FBS and 1% penicillin-streptomycin supplement and grown in a 37° C. incubator with 5% CO₂. […] After 24 hours, growth media was replaced with differentiation media (DMEM with 2% horse serum) and placed in a 37° C. incubator with 7.5% CO₂.

[4] = target: T1, human CACNG1 expressed on cells; assay: cell-based or functional assay; remark: listed apart in the source

T1 sequence (Q06432 whole entry): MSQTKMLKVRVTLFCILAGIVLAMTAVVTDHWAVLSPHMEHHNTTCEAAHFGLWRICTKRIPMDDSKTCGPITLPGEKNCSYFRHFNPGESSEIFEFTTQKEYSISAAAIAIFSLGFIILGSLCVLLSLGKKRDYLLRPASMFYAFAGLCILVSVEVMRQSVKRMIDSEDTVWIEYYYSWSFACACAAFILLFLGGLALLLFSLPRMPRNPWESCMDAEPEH

EC50 of androgen receptor luciferase reporter activation (RLU) by the DHT conjugate REGN14570-M3004 in hCACNG1.AR.Luc LNCaP cells, 24 hours; concentration adjusted for DAR [1]: 2 nM
EC50 of androgen receptor luciferase reporter activation (RLU) by the DHT conjugate REGN14570-M3004 in hCACNG1.AR.Luc LNCaP cells, 72 hours; concentration adjusted for DAR [2]: 6.65 nM
binding result [3]: binds
EC50 of androgen receptor luciferase reporter activation (RLU) by the DHT conjugate REGN14570-M3004 in hCACNG1.AR.Luc LNCaP cells, 48 hours; concentration adjusted for DAR [4]: 5.83 nM
B1: REGN14570 (antibody, human IgG1, kappa, N297Q)
heavy: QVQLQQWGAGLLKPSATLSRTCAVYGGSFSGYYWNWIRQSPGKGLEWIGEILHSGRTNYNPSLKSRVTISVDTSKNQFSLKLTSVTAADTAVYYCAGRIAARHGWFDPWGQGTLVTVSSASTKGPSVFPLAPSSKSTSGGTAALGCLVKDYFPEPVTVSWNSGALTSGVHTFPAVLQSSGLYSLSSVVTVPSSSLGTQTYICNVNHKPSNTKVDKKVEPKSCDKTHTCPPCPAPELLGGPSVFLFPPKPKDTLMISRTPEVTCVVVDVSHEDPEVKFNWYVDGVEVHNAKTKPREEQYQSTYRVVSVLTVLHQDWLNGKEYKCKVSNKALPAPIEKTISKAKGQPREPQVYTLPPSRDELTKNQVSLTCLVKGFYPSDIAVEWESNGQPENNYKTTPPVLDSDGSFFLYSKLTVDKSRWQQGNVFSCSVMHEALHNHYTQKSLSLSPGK
light: DIQMTQSPSSVSTSVGDRVTISCRASQDIRKWLAWYQQKPGKAPKLLIYATSSLQSGVPSRFSGSGSGTDFTLTISSLQPEDFATYFCQQANSFPFTFGQGTKLEIKRTVAAPSVFIFPPSDEQLKSGTASVVCLLNNFYPREAKVQWKVDNALQSGNSQESVTEQDSKDSTYSLSSTLTLSKADYEKHKVYACEVTHQGLSSPVTKSFNRGEC
modifications: conjugated to the M378-Biosensor probe (Example 15) or to budesonide linker-payload M404-M3123, DAR 4.1 (Example 14); attachment residues not stated for these lots
notes: hIgG1 N297Q; Tested only as conjugates; also called REGN14570-M378-Biosensor; REGN14570-M404-M3123
